Holding throughout (assay type): cell-based, human
Series [1] has as its system GSC7 cells. As to the kind of experiment: Flow cytometry of mNGreen reporter in GSC7. Here is the method: Cells were seeded at the required density. The following day the transfection was carried out. […] Following this step, the Plus reagent/Optimem premix was added to all DNA samples followed by the Lipofectamine LTX/Optimem premix. The transfection mix was incubated for 5 min at room temperature and then carefully dropped on the cells. Generally, no media change was carried out. Cells were analysed two days following transfection.
For flow cytometry, cells were detached, pelleted and resuspended in an appropriate volume of flow cytometry buffer (1% BSA in PBS, v/v). Cells were stained with Draq7 (Abcam, ab109202, f.c. 0.1 μM) as a live/dead stain and analysed using the BD LSRFortessa cell analyser (4 lasers, BD Bioscience).

Another series concerns huFb170 fibroblasts. In words: AAV2 transduction: mCherry and HSV-TKv5 expression in huFb170. The conditions noted are these: AAV2 HSV-TK-v5-P2A-mCherry cassette. The method, then:
(§1) For flow cytometry, cells were detached, pelleted and resuspended in an appropriate volume of flow cytometry buffer (1% BSA in PBS, v/v). Cells were stained with Draq7 (Abcam, ab109202, f.c. 0.1 μM) as a live/dead stain and analysed using the BD LSRFortessa cell analyser (4 lasers, BD Bioscience). Analysis of flow cytometry data was carried out in the FlowJo Analysis software (FlowJo, version 10.6.2).
(§2) Cells were scraped in PBS and spun down at […] twice to remove all liquid. Cell pellets were resuspended in 70 μl of RIPA buffer (50 mM Tris-HCl pH 8.0, 150 mM NaCl, 1% NP-40, 0.5% deoxycholate, 0.1% SDS and protease inhibitor (Complete, Roche, 11697498001) and incubated for 5 min on ice. Lysates were centrifuged at 13000 rpm for 10 min at 4° C. (centrifuge 5415D, Eppendorf). And the supernatant was collected in a new tube. Protein extracts were quantified using the Pierce BCA Protein Assay Kit (Thermo Scientific, Cat: 23225) according to the manufacturer's instructions.
(§3) HEK293 cells are seeded the day before the transfection into a 6 well plates so that on the day of transfection confluence would be at 60-70%. Before HEK293 cells are transfected with PEI a media change is carried out as this media will be conditioned with virus over the for two days. […] Cells are analysed on the microscope or flow cytometry. […]

For series [2], the system named is GSC7 cells. In words: AAV2 transduction: mCherry (flow cytometry) and HSV-TKv5 (western blot) expression in GSC7. Particulars: AAV2 HSV-TK-v5-P2A-mCherry cassette. The method, then:
as §1, §2, §3

In series [3] the test system is GSC patient lines E31 and E55. In words: Lentivirus SSE-7-mCherry reporter, flow cytometry in GSC patient lines. The text has this: FIG. 14: Exemplary SSE-7 also has good activity when deployed with lentivirus. Flow cytometry quantitation of levels of mCherry reporter in GSCs transduced with lentivirus harbouring SSE-7-mCherry reporters.
Series [4] concerns patient-derived glioblastoma cell lines (GSC7, E17, E21, E28, E31, E34). In words: SSE-7 activity (% mCherry) across patient-derived glioblastoma cell lines. The text has this:
FIG. 7: Activity of SSE-7 in a range of GSCs. (A) Schematic of the expression cassette. (B) Experimental outline, (C) Results of % mCherry expression for individual cells across the various cell lines tested. GSC7 was the positive control cell line tested (from which the fragments were initially screened). E17, E28 (previously termed G328), E21, E31, E34 refers to the five additional patient-derived glioblastoma cell lines.
The experiment described in Example 8 was repeated in five patient-derived glioblastoma cell lines (E17, E21, E28, E31, E34).

This note sets out measurements from patent US20260241035A1, “FUNCTIONAL NUCLEIC ACID MOLECULE AND METHOD” (THE UNIVERSITY COURT OF THE UNIVERSITY OF EDINBURGH, priority 2022, published 2026).

B1: SSE-7: synthetic super-enhancer ID4310_ID4428_ID0785_ID3836, SEQ ID NO: 70 (nucleic acid)
DNA: TTGTCCTGCCTTTGAGAACACTGGAAGGGCACTGAAGGCTGACCAGCATGCACCTCACCCCACCTCCTCTCTGTCTCATCCTCAGCCATCTAAGCGGGAGACTCATCAGGCTTAAATTCTCATTCTTATCCAAGATTCTTCTGCTTCAAATGAGTCTAAATGGAGATCCTCCCATAAAGGGAGTTCTGTTTGGGCTTCCCTTGGAAGTCCATTGAAAGCGTTTCACATTTCAATGCTTCTTTACATTCTCCTCTAGAATGAATCTGGAAGGGCCATTTCATTCCAGCCCTATCAGATTTACTACTTCCTCCTGTAAGAATGAACTGGGCCCAGCTGGGCATTTGCATCAAAGTGCCTCACCAGAGTTCCCAGCTGCTCTGGCAGAGTGCCCAGGCTTGCCCCAGAGCCCAAACAGAATGCTCTTTGAGATGCCTCTGGTTTTCATACCCTTCCAGGGGAGCAGTTTCCTGGCTGTGTCGTCAGATACTGTGGTTTACGCTGTTCCGGAGTCTGGAGGTCTGTGTGCCTTTGATCTCTTTCCCAACTAATTTGCACAGCTGCTGTGGAGGCCCTCATGAATGACCTCTTTCTTTCCTTTCT
For the molecule B1, the “expression level compared with positive control CMV, flow cytometry” value in the series with GSC7 cells [1] is reported as “higher than CMV”. The “fluorescence intensity compared with CMV” value with GSC7 cells [1] is “higher intensity than CMV”. The “mCherry and HSV-TKv5 expression” value in the series with huFb170 fibroblasts is “not in fibroblasts”; in the series with GSC7 cells [2], “driving both mCherry and HSV-TKv5 expression”. For the same molecule, the mCherry reporter expression result in series [3] is on record as “High levels of expression”. Moreover, the expression result in series [4] (E21, E31 and E34) was “lower frequency of expression”; in series [4] (GSC7, E17 and E28), “highly expressed and comparable to full-length CMV”. Besides, in series [4] (all lines tested), the “activity across cell lines” value is on record as “active in all cell lines”.
